In patent publication US20240402174A1 (Takeda / Millennium, published 2024):

Assays:
[1] = target: T1, GII.4/Yerseke VLP (norovirus Hu/GII.4/Yerseke38/2006/NL, UniProt P54635 1-539); assay: multiplex microsphere immunoassay
T1 construct: also called Hu/GII.4/Yerseke38/2006/NL
T1 chain: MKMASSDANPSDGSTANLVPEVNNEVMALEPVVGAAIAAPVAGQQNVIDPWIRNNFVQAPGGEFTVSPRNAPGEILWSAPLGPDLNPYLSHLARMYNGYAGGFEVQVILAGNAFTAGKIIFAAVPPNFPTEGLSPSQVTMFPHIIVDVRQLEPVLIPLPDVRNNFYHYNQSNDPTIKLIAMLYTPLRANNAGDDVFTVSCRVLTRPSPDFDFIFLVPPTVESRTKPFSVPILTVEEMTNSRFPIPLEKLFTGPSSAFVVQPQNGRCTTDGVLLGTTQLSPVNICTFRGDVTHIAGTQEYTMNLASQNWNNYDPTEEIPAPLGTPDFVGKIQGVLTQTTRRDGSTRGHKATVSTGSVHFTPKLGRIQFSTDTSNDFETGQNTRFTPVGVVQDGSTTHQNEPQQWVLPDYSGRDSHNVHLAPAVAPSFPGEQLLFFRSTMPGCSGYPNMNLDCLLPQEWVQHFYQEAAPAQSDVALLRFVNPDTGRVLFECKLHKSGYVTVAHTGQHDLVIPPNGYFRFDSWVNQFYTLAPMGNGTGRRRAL

[2] = target: T2, GII.4/New Orleans VLP (norovirus Hu/GII.4/New …, UniProt P54635 1-539); assay: multiplex microsphere immunoassay
T2 construct: also called Hu/GII.4/New Orleans1805/2009/USA
T2 chain: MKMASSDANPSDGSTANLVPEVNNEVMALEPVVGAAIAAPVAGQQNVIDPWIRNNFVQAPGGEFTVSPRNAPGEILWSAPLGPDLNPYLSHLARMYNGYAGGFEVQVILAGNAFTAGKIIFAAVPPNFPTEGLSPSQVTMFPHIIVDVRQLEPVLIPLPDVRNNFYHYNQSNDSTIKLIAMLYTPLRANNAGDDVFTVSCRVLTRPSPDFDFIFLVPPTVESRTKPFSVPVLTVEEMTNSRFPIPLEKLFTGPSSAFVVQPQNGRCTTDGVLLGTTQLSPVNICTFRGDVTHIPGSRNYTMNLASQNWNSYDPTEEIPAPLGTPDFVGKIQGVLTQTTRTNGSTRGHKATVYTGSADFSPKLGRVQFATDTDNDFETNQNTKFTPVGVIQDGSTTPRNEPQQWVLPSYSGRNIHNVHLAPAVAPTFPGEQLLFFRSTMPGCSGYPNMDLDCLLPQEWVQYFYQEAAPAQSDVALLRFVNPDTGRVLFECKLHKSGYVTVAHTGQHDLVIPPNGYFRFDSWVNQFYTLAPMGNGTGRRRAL

[3] = target: T3, GII.6 VLP (norovirus Hu/GII.6/Ehime120246/2012/JP); assay: multiplex microsphere immunoassay
T3 construct: also called Hu/GII.6/Ehime120246/2012/JP
T3 chain: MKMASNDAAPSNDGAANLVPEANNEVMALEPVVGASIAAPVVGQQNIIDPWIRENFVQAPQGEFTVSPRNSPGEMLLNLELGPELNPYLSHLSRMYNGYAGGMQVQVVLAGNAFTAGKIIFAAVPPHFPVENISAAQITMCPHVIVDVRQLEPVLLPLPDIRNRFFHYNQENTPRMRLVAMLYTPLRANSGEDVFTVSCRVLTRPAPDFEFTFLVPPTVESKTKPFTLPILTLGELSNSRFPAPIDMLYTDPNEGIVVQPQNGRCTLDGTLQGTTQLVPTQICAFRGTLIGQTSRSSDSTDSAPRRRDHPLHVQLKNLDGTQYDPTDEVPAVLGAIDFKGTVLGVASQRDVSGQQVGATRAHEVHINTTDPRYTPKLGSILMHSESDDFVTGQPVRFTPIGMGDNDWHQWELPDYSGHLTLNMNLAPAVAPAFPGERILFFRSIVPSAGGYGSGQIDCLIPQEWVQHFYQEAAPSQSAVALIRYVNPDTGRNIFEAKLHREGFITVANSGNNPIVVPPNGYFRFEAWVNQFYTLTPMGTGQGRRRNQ

[4] = target: T4, GII.4/Consensus VLP (norovirus GII.4 consensus sequence, UniProt P54635 1-539); assay: PGM blockade assay, serially diluted mAb
T4 chain: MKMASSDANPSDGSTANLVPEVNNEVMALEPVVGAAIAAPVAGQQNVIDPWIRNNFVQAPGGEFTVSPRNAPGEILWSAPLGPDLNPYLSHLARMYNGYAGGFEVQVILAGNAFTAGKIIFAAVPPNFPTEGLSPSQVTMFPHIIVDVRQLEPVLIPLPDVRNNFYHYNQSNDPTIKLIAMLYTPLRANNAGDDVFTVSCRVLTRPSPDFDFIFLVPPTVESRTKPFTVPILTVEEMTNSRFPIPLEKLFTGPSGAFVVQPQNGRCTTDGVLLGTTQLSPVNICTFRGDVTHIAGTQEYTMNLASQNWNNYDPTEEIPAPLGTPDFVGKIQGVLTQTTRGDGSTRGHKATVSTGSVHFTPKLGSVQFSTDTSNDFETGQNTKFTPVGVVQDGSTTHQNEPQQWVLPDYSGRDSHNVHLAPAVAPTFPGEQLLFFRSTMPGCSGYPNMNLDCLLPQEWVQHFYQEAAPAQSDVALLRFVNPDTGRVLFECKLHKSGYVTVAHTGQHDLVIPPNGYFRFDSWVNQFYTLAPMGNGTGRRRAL
Protocol: (§1) Plates were washed 3 times with PBST before use. […] The mixture was transferred to the PGM-coated plates including VLP-only controls and incubation carried out for 1 h at 22° C. or 37° C. Following 3 washes with PBST, detection antibody specific for the corresponding VLP was added and the plates were incubated at room temperature for 1 h and then washed 3 times with PBST. […] Following 3 washes, enzyme substrate (ABTS, KPL) was added and allowed to react for 12 min at room temperature. ABTS Peroxidase Stop Solution (KPL) was then added and plates were read at a wavelength of 450 nm in a Molecular Devices plate reader using SoftMax Pro Software (Molecular Devices, Downingtown, PA, USA) to obtain the Optical Density (GD) of each well.
(§2) The following, day corresponding dilutions incubated with VLPs were transferred to the PGM-coated plates. The OD data was curve fit and blocking titers were calculated as the supernatant dilution interpolated at 1/2 the maximum OD for the plate. The blocking titers represent the supernatant dilution that produces a 50% reduction in VLP binding to PGM. The maximum OD for the plate was calculated from the VLP only control.

[5] = target: T5, GII.4/Den Haag VLP (norovirus Hu/GII.4/DenHaag89/2006/NL, UniProt P54635 1-539); assay: PGM blockade assay, serially diluted mAb
T5 construct: also called Hu/GII.4/DenHaag89/2006/NL
T5 chain: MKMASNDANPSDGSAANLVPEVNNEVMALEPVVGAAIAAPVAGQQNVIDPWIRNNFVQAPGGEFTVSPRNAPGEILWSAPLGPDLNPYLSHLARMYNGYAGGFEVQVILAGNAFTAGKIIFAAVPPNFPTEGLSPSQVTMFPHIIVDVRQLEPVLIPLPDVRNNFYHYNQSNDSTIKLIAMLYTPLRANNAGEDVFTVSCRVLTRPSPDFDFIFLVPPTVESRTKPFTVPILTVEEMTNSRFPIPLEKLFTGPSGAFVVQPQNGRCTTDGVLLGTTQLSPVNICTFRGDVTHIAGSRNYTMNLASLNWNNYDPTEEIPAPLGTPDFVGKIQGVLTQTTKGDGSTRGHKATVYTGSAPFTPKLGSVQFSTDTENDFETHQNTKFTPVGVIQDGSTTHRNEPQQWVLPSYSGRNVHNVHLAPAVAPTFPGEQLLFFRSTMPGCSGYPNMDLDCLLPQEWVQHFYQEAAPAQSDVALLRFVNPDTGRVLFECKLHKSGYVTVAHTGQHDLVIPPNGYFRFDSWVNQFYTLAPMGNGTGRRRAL
Protocol: as §1, §2

B1: human mAb 1431 (antibody, V domains shown)
VH: QVQLVQSGGGLVQPGGSLRLSCAASGFAFSNHGMHWVRQAPGKGLEWLSYISGSTGAIHYANSVKGRFTISRDNARNSLDLQMNSLGDEDTAVYYCARDGPRPDGTGYAGPSNDYWGQGTLVSVSS
VL: EIVLTQSPASLSLSPGERATLSCKASRSISIYLAWYQQKPGQAPRLLIYDASYRAIGIPARFSGSGSGTDFTLTISNLEPEDFAVYYCQHRSSWPALTFGGGTKVEI
notes: also called A1431
EC50 [1]: 7 ng/mL
EC50 [2]: 18 ng/mL
binding result [3]: no binding
blocking titer [4]: 139000
blocking titer [5]: 5720

B2: human mAb 1227 (antibody, V domains shown)
VH: QVQLVQSGGGMVQPGGSLSLSCAASGFTLSNYAMTWVRQAPGKGLEWVSSIGGSGGTTYYADSVKGRFTISRDSSMNTLYLQMSNLRAGDTAVYYCAKDKTRTLRLGYSGMDVWGQGTTVTVSS
VL: DIRLTQSPSSLSASVGDRVTITCRASQSISSYLNWYQQKPGKAPDLLIYGASSLQSGVPSRFSGSGSGTDFTLTISSLQPEDFGNYYCQQSFSTPRTFGQGTKVEL
notes: also called A1227
EC50 [1]: 2 ng/mL
EC50 [2]: 7 ng/mL
EC50 [3]: 71 ng/mL
blocking titer [4]: 447
blocking titer [5]: 162
